These results are taken from patent US20210009713A1 (MIDWESTERN UNIVERSITY, published 2021).

For this test, the target named is T1, aspartyl (asparaginyl) β-hydroxylase (ASPH) (UniProt Q12797 75-758, limits assumed).
T1 construct: also called ASPH protein
T1 sequence (looked up): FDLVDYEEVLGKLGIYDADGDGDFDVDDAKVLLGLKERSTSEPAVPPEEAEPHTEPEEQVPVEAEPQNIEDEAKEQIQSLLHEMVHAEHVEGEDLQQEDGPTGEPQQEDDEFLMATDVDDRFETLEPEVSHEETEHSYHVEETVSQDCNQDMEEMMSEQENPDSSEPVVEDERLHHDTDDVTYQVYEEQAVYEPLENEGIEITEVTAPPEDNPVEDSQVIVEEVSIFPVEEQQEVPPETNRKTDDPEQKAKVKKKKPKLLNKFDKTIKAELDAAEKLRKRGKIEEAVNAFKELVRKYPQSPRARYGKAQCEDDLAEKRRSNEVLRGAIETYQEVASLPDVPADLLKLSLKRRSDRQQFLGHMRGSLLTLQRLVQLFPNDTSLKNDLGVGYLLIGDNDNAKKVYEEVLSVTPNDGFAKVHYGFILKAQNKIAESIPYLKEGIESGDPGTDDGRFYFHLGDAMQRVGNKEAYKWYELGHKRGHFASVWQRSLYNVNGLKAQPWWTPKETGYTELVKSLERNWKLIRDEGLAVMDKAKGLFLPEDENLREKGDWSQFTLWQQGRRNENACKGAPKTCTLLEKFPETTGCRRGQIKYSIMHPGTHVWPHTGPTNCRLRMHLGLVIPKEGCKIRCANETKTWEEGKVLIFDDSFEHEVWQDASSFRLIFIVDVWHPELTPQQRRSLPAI
As to the kind of experiment: SPR, antibody captured via Protein G, ASPH as analyte. The protocol:
The interaction between ASPH and a set of 6 antibodies were characterized by Essai Sciences LLC (Stillwater, Okla.) on a SensiQ Pioneer SPR Platform. The COOH2 sensor chip, which contains a planar dextran surface, was used for target immobilization. The buffer system was 10 mM HEPES, pH 7.4, 150 mM NaCl, and 0.01% Tween-20.
All channels of a COOH2 sensor chip were activated with a five-minute injection of 40 mM EDC and 10 mM NHS. Protein G was then injected across channels 1 and 2. 1 M ethanolamine, pH 8.0 was then injected across all three channels. Approximately 1000 response units of Protein G were captured on both channels 1 and 2 (FIG. 18). For each antibody-ASPH interaction, the antibody was injected on channel 1, leaving channels 2 and 3 as a Protein G reference and empty channel reference, respectively. After antibody capture, ASPH was injected at a single concentration. Following injection of ASPH, all three channels were injected with 10 mM NaOH for one minute to regenerate the Protein G surface. This was done twice for each antibody, at each tested concentration of ASPH.

Where two headings read alike, the source gives them in different places.

B1: 5H4/5K3 (antibody, V domains shown)
VH: QSLEESGGDLVKPGASLTLTCKASGFDFSSNAMCWVRQAPGKGPEWIACIDNGDGSTDYATWAKGRFTISKTSSTTVTLQMTSLTAADTATYFCTRNFNLWGQGTLVTVSS
VL: AQVLTQTASSVSAAVGGTVTISCQSSQSVYDNNRLAWFQQKPGQPPKLLIYETSKLASGVPLRFKGSGSGTQFTLTISDLECDDAATYYCLGSYSGYIYTFGGGTEVVVKG
notes: The entries are translated variable regions that still carry the leader and the start of the constant region (GQPK... / GDPV...)
The Kd is the equilibrium constant for the complex coming apart. Low readings indicate higher affinity, high ones lower affinity. The koff is the first-order rate constant of dissociation. Usually kon stands for the second-order rate constant of association. As to B1, binding was characterised by a dissociation constant (Kd) of 144 nM, the off-rate (koff) came out at 0.00243 s⁻¹ and the kon is 16800 M⁻¹ s⁻¹.

B2: 9H2/9K3 (antibody, part only; not given: kappa light chain, V domains shown, part only)
VH: QSLEESGGDLVKPGASLTLTCKASGFDFISNAMCWVRQAPGKGPEWIACIDNGDGSTDYATWAKGRFTISKTSSTTVTLQMTSLTAADTATYFCTRNFNLWGQGTLTVSSGQPKAPSVFPLAP
Consider B2, for which the Kd was found to be 61.9 nM, the koff amounted to 0.00185 s⁻¹ and the kon came out at 29800 M⁻¹ s⁻¹. Under “record 2”, this molecule came in with a dissociation constant Kd of 60 nM.
